Series [1] addresses His-tagged YfcD (putative Nudix hydrolase) expressed from pCA24N(-GFP) (E. coli). Briefly: ITC. For orientation: In ITC the heat of successive injections is recorded.
For series [2], the target named is His-tagged pantothenate synthetase with a C-terminal extension (PS-[LCGR]), expressed from pCA24N(-GFP) (E. coli). Briefly: ITC.
For series [3], the target named is His-tagged YfcD (putative Nudix hydrolase) expressed from pCA24N(-GFP). Briefly: fluorescence polarisation. A general note: In fluorescence polarisation assays a small probe gives low polarisation when free and higher when bound to something large.

“Also recorded” adds a separate entry of the source.

Usually Kd stands for the equilibrium constant for the complex coming apart. A lower Kd goes with tighter binding.

With “His-tagged pantothenate synthetase expressed from pET28a (from UniProt P31663 1-283) (enzyme)”, the Kd in series [1] was determined as 2.11 µM.

“His-tagged YfcD (putative Nudix hydrolase) expressed from pCA24N(-GFP) (natural protein)”: the Kd in series [2] amounted to 30 µM.

B1: FITC-labelled His-tagged pantothenate synthetase (pET28a), labelled by sortase on the N-terminal glycine (protein)
chain: MLIIETLPLLRQQIRRLRMEGKRVALVPTMGNLHDGHMKLVDEAKARADVVVVSIFVNPMQFDRPEDLARYPRTLQEDCEKLNKRKVDLVFAPSVKEIYPNGTETHTYVDVPGLSTMLEGASRPGHFRGVSTIVSKLFNLVQPDIACFGEKDFQQLALIRKMVADMGFDIEIVGVPIMRAKDGLALSSRNGYLTAEQRKIAPGLYKVLSSIADKLQAGERDLDEIITIAGQELNEKGFRADDIQIRDADTLLEVSETSKRAVILVAAWLGDARLIDNKMVELA
With B1, the K0.5 result in series [3] is recorded as “K0.5 = 1.87 ± 0.08 μM; also recorded: K0.5 2.16 ± 0.11 μM”.

(Values after paper PMC5963676.)
